Test [1] deals with GARP A114R / TGF-β1 complex (human, UniProt Q14392 20-662; P01137 30-390). In words: flow cytometry on transfected 293T cells, 5 ug/ml; grade of Loss of binding read by footnote 2. From the text:
(§1) Resolution of the crystal structure of MHG-8 Fab/GARP/TGF-β1 complexes and analysis with the CONTACT software allowed the identification of 22 amino-acids in GARP, 8 amino-acids in LAP and 6 amino-acids in mature TGF-β1 that are located less than 5 Å away from an amino-acid of the light or heavy chain of the MHG-8 Fab (Tables 7a, b and c, and Table 8). Directed mutagenesis was used to construct plasmids encoding HA-tagged forms of GARP or TGF-β1 that are mutated at one, two, or three of these 36 positions (all mutations constructed are indicated in Table 8). […] Antibodies were used at a saturating concentration of 5 μg/ml for labeling. Binding of each antibody to a given mutant GARP/TGF-β1 complex was compared to their binding to wild type (WT) complexes, by determining an I_{m/wt} value (i.e. intensity of binding to mutant by comparison to WT). This value was calculated as follows: I_{m/wt} of antibody X=[Geom on mutant−Geom on control]/[Geom on WT−Geom on control]
(§2) The level of residual binding of anti-GARP or anti-LAP antibodies to each mutant was then calculated by comparison to WT, taking into account the expression levels of mutant and WT forms as measured with anti-HA antibodies. Residual binding was calculated as follows: Residual binding by an anti-GARP or anti-LAP antibody=[I_{m/wt} with anti-GARP or anti-LAP antibody]/[I_{m/wt} with anti-HA antibody]
On the technique in general: In flow cytometry, cells or beads pass a laser one at a time.

Test [2] has as its target GARP A117R / TGF-β1 complex (human, UniProt Q14392 20-662; P01137 30-390). Described as above.
Excerpt: as §1, §2

Test [3] addresses GARP / TGF-β1 K338E complex (human, UniProt Q14392 20-662; P01137 30-390). Described as above.
Excerpt: as §1, §2

In test [4] the target is GARP G118L/G119L / TGF-β1 complex (human, UniProt Q14392 20-662; P01137 30-390). Briefly: flow cytometry titration on transfected 293T cells; grade of Reduced avidity read by footnote 3. As for the experimental part: (§3) Intensities of staining at each concentration of antibody relative to the maximal intensity measured at 5 μg/ml were determined as follows:
(§4) The relative staining intensities were plotted according to the concentration of antibody used for staining, and a non-linear regression analysis was used with the Prism software to determine an EC₅₀ value for binding of the antibody to the WT and to each of the various mutant GARP/TGF-β1 complexes. If the ratio between the EC₅₀ measured on the mutant and the EC₅₀ measured on the WT was >2, the mutation was considered to induce a reduced avidity for binding by the antibody. The ratio of EC₅₀ (mutant vs WT) for MHG-8 and LHG-10 are indicated below each mutation on FIG. 19, parts A and B, respectively.

Test [5] concerns the target GARP Y137H / TGF-β1 complex (human, UniProt Q14392 20-662; P01137 30-390). Described as above. As for the experimental part: as §3, §4
Test [6] deals with GARP S138G / TGF-β1 complex (human, UniProt Q14392 20-662; P01137 30-390). The description is as above. Here is the method:
as §3, §4

The target in test [7] is GARP G139N / TGF-β1 complex (human, UniProt Q14392 20-662; P01137 30-390). The test is described as above. As for the experimental part: as §3, §4
For test [8], the target named is GARP Y137H/S138G/G139N / TGF-β1 complex (human, UniProt Q14392 20-662; P01137 30-390). The test is described as above. Here is the method:
as §3, §4

Test [9] concerns the target GARP L140K/E142L / TGF-β1 complex (human, UniProt Q14392 20-662; P01137 30-390). The test is described as above. Here is the method:
as §3, §4

For test [10], the target named is GARP T162D / TGF-β1 complex (human, UniProt Q14392 20-662; P01137 30-390). The test is described as above. As for the experimental part: as §3, §4
Chain of GARP T162D / TGF-β1 complex (Q14392 20-662 T162D limits assumed, chain 1 of 2): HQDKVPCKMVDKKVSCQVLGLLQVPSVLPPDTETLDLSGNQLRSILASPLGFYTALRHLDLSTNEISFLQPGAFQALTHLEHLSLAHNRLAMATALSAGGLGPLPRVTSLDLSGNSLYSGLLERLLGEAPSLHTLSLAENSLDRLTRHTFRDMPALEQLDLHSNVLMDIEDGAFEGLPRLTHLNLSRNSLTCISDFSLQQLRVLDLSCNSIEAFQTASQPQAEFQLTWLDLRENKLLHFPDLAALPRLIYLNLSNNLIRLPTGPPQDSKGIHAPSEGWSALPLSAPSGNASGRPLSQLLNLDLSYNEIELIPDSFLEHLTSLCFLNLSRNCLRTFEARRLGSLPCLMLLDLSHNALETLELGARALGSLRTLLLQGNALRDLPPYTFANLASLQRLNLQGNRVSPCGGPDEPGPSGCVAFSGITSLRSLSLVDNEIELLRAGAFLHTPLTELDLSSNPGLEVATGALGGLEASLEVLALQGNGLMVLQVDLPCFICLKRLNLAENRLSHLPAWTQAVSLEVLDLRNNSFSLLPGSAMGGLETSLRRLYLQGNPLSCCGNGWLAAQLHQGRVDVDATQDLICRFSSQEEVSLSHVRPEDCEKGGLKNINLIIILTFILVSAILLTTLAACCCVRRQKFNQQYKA
Chain of GARP T162D / TGF-β1 complex (P01137 30-390 limits assumed, chain 2 of 2): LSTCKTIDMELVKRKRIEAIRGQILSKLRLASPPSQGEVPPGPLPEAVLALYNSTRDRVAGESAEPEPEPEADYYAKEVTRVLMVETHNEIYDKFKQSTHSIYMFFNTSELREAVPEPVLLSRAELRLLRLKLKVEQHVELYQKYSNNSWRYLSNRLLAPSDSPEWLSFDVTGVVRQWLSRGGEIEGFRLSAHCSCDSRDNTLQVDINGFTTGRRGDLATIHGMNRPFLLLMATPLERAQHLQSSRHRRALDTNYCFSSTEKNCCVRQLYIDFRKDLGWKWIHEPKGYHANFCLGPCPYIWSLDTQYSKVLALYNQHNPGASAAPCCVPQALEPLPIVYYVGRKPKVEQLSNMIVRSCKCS
The target in test [11] is GARP R163E / TGF-β1 complex (human, UniProt Q14392 20-662; P01137 30-390). Described as above. Here is the method: as §3, §4
Test [12] has as its target GARP T165A / TGF-β1 complex (human, UniProt Q14392 20-662; P01137 30-390). The test is described as above. As for the experimental part: as §3, §4
In test [13] the target is GARP R166M/H167E / TGF-β1 complex (human, UniProt Q14392 20-662; P01137 30-390). Described as above. As for the experimental part:
as §3, §4

Test [14] concerns the target GARP / TGF-β1 R58A complex (human, UniProt Q14392 20-662; P01137 30-390). The test is described as above. As for the experimental part:
as §3, §4

The target of test [15] is GARP / TGF-β1 E146R complex (human, UniProt Q14392 20-662; P01137 30-390). The description is as above. As for the experimental part: as §3, §4
Test [16] has as its target GARP / TGF-β1 Q269Y complex (human, UniProt Q14392 20-662; P01137 30-390). The description is as above. Here is the method:
as §3, §4

The target of test [17] is GARP / TGF-β1 Y284A complex (human, UniProt Q14392 20-662; P01137 30-390). The description is as above. Here is the method:
as §3, §4

Chain of GARP Y137H/S138G/G139N / TGF-β1 complex (Q14392 20-662 Y137H/S138G/G139N limits assumed, chain 1 of 2): as the sequence (Q14392 20-662 T162D limits assumed, chain 1 of 2) above, with Y118H, S119G, G120N, D143T counted along it
Chain of GARP Y137H/S138G/G139N / TGF-β1 complex (P01137 30-390 limits assumed, stated change not applied, chain 2 of 2): as the sequence (P01137 30-390 limits assumed, chain 2 of 2) above
Chain of GARP Y137H / TGF-β1 complex (Q14392 20-662 Y137H limits assumed, chain 1 of 2): as the sequence (Q14392 20-662 T162D limits assumed, chain 1 of 2) above, with Y118H, D143T counted along it
Chain of GARP Y137H / TGF-β1 complex (P01137 30-390 limits assumed, chain 2 of 2): as the sequence (P01137 30-390 limits assumed, chain 2 of 2) above
Chain of GARP A114R / TGF-β1 complex (Q14392 20-662 A114R limits assumed, chain 1 of 2): as the sequence (Q14392 20-662 T162D limits assumed, chain 1 of 2) above, with A95R, D143T counted along it
Chain of GARP A114R / TGF-β1 complex (P01137 30-390 limits assumed, chain 2 of 2): as the sequence (P01137 30-390 limits assumed, chain 2 of 2) above

B1: LHG-10 (antibody, human IgG1, V domains shown)
VH: EVQLVQPGAELRNSGASVKVSCKASGYRFTSYYIDWVRQAPGQGLEWMGRIDPEDGGTKYAQKFQGRVTFTADTSTSTAYVELSSLRSEDTAVYYCARNEWETVVVGDLMYEYEYWGQGTQVTVSS
VL: DIQMTQSPTSLSASLGDRVTITCQASQSISSYLAWYQQKPGQAPKLLIYGASRLQTGVPSRFSGSGSGTSFTLTISGLEAEDAGTYYCQQYDSLPVTFGQGTKVELK
notes: llama-derived V regions in a full human IgG1
For the molecule B1, the results for the “residual binding on mutant by comparison to WT” value in test [1], in test [2] and in test [3] were ≥ 50%, ≥ 50% and < 50%, respectively. Also, the “ratio of EC50 (mutant vs WT)” value in test [4] was ≤ 2 ratio; in test [5], ≤ 2 ratio; in [6] it was ≤ 2 ratio; in [7], ≤ 2 ratio; in test [8], > 2 ratio; in test [9] it was ≤ 2 ratio. The “ratio of EC50 (mutant vs WT)” value in test [10] was > 2 ratio; in test [11] it was > 2 ratio; in test [12] it was ≤ 2 ratio; in [13], ≤ 2 ratio; in [14], ≤ 2 ratio; in [15] it was ≤ 2 ratio. Moreover, the “ratio of EC50 (mutant vs WT)” value in test [16] and in [17] was ≤ 2 ratio throughout.

For the origin of these results see patent publication US20160251438A1 (LUDWIG INSTITUTE FOR CANCER RESEARCH, published 2016).
